T1: F119L phosphomannomutase2 (human) (UniProt O15305)
T1 sequence: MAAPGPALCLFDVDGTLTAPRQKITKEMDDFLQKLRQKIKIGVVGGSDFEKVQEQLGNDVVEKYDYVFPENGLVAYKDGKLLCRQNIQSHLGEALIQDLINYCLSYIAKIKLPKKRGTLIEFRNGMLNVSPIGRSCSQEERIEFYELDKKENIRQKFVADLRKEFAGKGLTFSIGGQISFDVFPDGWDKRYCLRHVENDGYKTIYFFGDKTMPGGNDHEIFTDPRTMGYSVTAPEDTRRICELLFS


Columns and labels:
[1] = biological target: T1, F119L phosphomannomutase2 (human)
[2] = biological target: the molecule itself; experiment: SEC; analytical, BioSep-SEC-S3000 column, Hepes 20 mM pH 7.5, NaCl 150 mM, MgCl2 5 mM, room temperature, 0.5 ml/min; wt-PMM2 10 μg, F119L 7 μg, or mixture of 5 μg wt-PMM2 and 3.5 μg F119L

corrected specific phosphoglucomutase activity (per amount of F119L) of Superdex75 fractions, F119L:R141H 1:1 to 1:3.5, compared with F119L alone; 5 μM Glc-1,6-P2 and 40 μM Glc-1P [1] | Binder | binding result [2]
3 fold | R141H phosphomannomutase2 (enzyme) MAAPGPALCLFDVDGTLTAPRQKITKEMDDFLQKLRQKIKIGVVGGSDFEKVQEQLGNDVVEKYDYVFPENGLVAYKDGKLLCRQNIQSHLGEALIQDLINYCLSYIAKIKLPKKRGTFIEFRNGMLNVSPIGRSCSQEEHIEFYELDKKENIRQKFVADLRKEFAGKGLTFSIGGQISFDVFPDGWDKRYCLRHVENDGYKTIYFFGDKTMPGGNDHEIFTDPRTMGYSVTAPEDTRRICELLFS | –
– | wild type phosphomannomutase2 (enzyme, human, UniProt O15305-1 1-246, looked up, Phosphomannomutase2 (PMM2), human, UniProt entry name PMM2_HUMAN; also called wt-PMM2; PMM2) MAAPGPALCLFDVDGTLTAPRQKITKEMDDFLQKLRQKIKIGVVGGSDFEKVQEQLGNDVVEKYDYVFPENGLVAYKDGKLLCRQNIQSHLGEALIQDLINYCLSYIAKIKLPKKRGTFIEFRNGMLNVSPIGRSCSQEERIEFYELDKKENIRQKFVADLRKEFAGKGLTFSIGGQISFDVFPDGWDKRYCLRHVENDGYKTIYFFGDKTMPGGNDHEIFTDPRTMGYSVTAPEDTRRICELLFS | binds
– | F119L phosphomannomutase2 (enzyme, human, UniProt O15305-1 1-246, looked up, Phosphomannomutase2 (PMM2), human, pathological variant p.Phe119Leu (rs80338701); also called hypomorphic mutant) MAAPGPALCLFDVDGTLTAPRQKITKEMDDFLQKLRQKIKIGVVGGSDFEKVQEQLGNDVVEKYDYVFPENGLVAYKDGKLLCRQNIQSHLGEALIQDLINYCLSYIAKIKLPKKRGTLIEFRNGMLNVSPIGRSCSQEERIEFYELDKKENIRQKFVADLRKEFAGKGLTFSIGGQISFDVFPDGWDKRYCLRHVENDGYKTIYFFGDKTMPGGNDHEIFTDPRTMGYSVTAPEDTRRICELLFS | binds

From paper PMC4619449, “Heterodimerization of Two Pathological Mutants Enhances the Activity of Human Phosphomannomutase2” (PLoS ONE, 2015)
